Our source for the fold decrease in affinity against prototype tau type IA (SEQ ID NO:1) and IC50 values is patent publication US20060167227A1.

One may read the IC50 as the point on the concentration scale where inhibition reaches its midpoint.

Test [1] deals with tau monoclonal antibody (Example 5, FIG. 5). The test is described as follows: competitive ELISA. (In an ELISA, binding on a coated surface is turned into a signal by an enzyme label.)
The target is the same in test [2]. The test is described as follows: competitive ELISA; printed as apparent affinity = antigen concentration for 50% competition with prototype tau type IA.

In test [1], “deletion mutant SEQ ID NO: 21 (268-333,R4;del 239-267) (from UniProt O02828 288-353)” registered a fold decrease in affinity against prototype tau type IA (SEQ ID NO:1) of 1000 fold. “prototype tau type IA (SEQ ID NO:1) (239-333,R4) (from UniProt O02828 259-353)”: the IC50 in test [2] came to 0.01 µM.
